Consider 26 molecules from patent JP2005330292A (dated 2005).

Numbering of substitutions follows the chain as printed.

The target of assay [1] is T1, ヒト組織因子(TF)(ヒト膀胱癌細胞J82上に発現) (human, UniProt P13726 33-295).
T1 construct: whole, on cells; Target of the cell ELISA; also called ヒトTF; 抗原
Nature of the assay: cell ELISA on fixed J82 cells.

Assay [2] has as its target T2, 可溶型ヒトTF(アミノ酸配列1-219のC末端にFLAGペプチドを連結、CHO細胞発現) (human, UniProt P13726 33-251).
T2 construct: also called shTF; 可溶型TF
In words: dot blot of shTF on nitrocellulose: native, 8 M urea-denatured, and 8 M urea + 5 mM DTT.

Assay [3] has as its target T1, ヒト組織因子(TF)(ヒト膀胱癌細胞J82上に発現). Nature of the assay: cell ELISA on fixed J82 cells; chimeric antibody as the reference. (An ELISA detects its analyte on a solid surface through an enzyme-linked reagent.)

B1: H鎖ヒト型化バージョンa/L鎖キメラ抗体 (antibody, V domains shown)
VH: QVQLLESGAVLARPGTSVKISCKASGFNIKDYYMHWVKQRPGQGLEWIGGNDPANGHSMYDPKFQGRAKLTAATSASIAYLEFSSLTNEDSAVYYCARDSGYAMDYWGQGTLVTVSS
VL: DIKMTQSPSSMYASLGERVTITCKASQDIKSFLSWYQQKPWKSPKTLIYYATSLADGVPSRFSGSGSGQDYSLTINNLESDDTATYYCLQHGESPYTFGGGTKLEIK
notes: Human IgG4 kappa (vector N5KG4P); also called a-ch
As to B1, the binding result in assay [1] is recorded as “binds”.

B2: H鎖ヒト型化バージョンb/L鎖キメラ抗体 (antibody, V domains shown)
VH: QVQLLESGAVLARPGTSVKISCKASGFNIKDYYMHWVKQRPGQGLEWIGGNDPANGHSMYDPKFQGRVTITADTSTNTAYMELSSLRSEDTAIYYCARDSGYAMDYWGQGTLVTVSS
VL: B1 VL
notes: Human IgG4 kappa (vector N5KG4P); also called b-ch
Turning to B2, in assay [1], the binding result was “binds”.

B3: H鎖キメラ/L鎖キメラ抗体(キメラATR-5抗体) (antibody, V domains shown)
VH: EVQLQQSGTNLVRPGALVKLSCKGSGFNIKDYYMHWVKQRPEQGLEWIGGNDPANGHSMYDPKFQGKASITADTSSNTAYLQLSSLTSEDTAVYFCARDSGYAMDYWGQGTSVTVSS
VL: B1 VL
notes: Mouse ATR-5 V regions joined to human C regions; Both an IgG1 (N5KG1(V)) and an IgG4 (N5KG4P) kappa vector were built; also called ch-ch; chATR-5
Consider B3, for which the binding result in assay [2] and in assay [3] was “binds” throughout.

B4: H鎖ヒト型化バージョンc/L鎖キメラ抗体 (antibody, V domains shown)
VH: QVQLLESGAVLARPGTSVKISCKASGFNIKDYYMHWVKQRPGQGLEWIGGNDPANGHSMYDPKFQGRVTMLVDTSKNQFSLRLSSVTAADTAVYYCARDSGYAMDYWGQGTLVTVSS
VL: B1 VL
notes: Human IgG4 kappa (vector N5KG4P); also called c-ch
Regarding B4, in assay [1], the binding result is recorded as “binds”.

B5: H鎖ヒト型化バージョンa/L鎖ヒト型化バージョンa抗体 (antibody, V domains shown)
VH: B1 VH
VL: DIQMTQSPSSLSASVGDRVTITCKASQDIKSFLSWYQQKPGKAPKLLIYYATSLADGVPSRFSGSGSGTDFTLTISSLQPEDFATYYCLQHGESPYTFGGGTKVEIK
notes: Human IgG4 kappa (vector N5KG4P); also called a-a
As for B5, the binding result in assay [1] is “binds”.

B6: H鎖ヒト型化バージョンe/L鎖キメラ抗体 (antibody, V domains shown)
VH: B2 VH with T69S, T74E, N77K, T78I, S84N, I93V, Y95F
VL: B1 VL
notes: Human IgG4 kappa (vector N5KG4P); also called e-ch
As to B6, in assay [1], the binding result is listed as “binds”.

B7: H鎖ヒト型化バージョンi/L鎖キメラ抗体 (antibody, V domains shown)
VH: B2 VH with N77S, A79V, Y80F, I93V
VL: B1 VL
notes: Human IgG4 kappa (vector N5KG4P); also called i-ch
For B7, in assay [1], the binding result is “binds”.

B8: H鎖ヒト型化バージョンj/L鎖キメラ抗体 (antibody, V domains shown)
VH: B2 VH with I70F, T76A, S84R, E89A, I93V
VL: B1 VL
notes: Human IgG4 kappa (vector N5KG4P); also called j-ch
On to B8, for which the binding result in assay [1] is “binds”.

B9: H鎖ヒト型化バージョンd/L鎖キメラ抗体 (antibody, V domains shown)
VH: B2 VH with T74E, N77S, T91S, I93V, Y95F
VL: B1 VL
notes: Human IgG4 kappa (vector N5KG4P); also called d-ch
As to B9, in assay [1], the binding result is given as “binds”.

B10: H鎖キメラ/L鎖ヒト型化バージョンb抗体 (antibody, V domains shown)
VH: B3 VH
VL: B5 VL with F71Y
notes: Human IgG4 kappa (vector N5KG4P); also called ch-b
In the case of B10, the binding result in assay [1] was “binds”.

B11: H鎖ヒト型化バージョンb/L鎖ヒト型化バージョンb抗体 (antibody, V domains shown)
VH: B2 VH
VL: B5 VL with F71Y
notes: Human IgG4 kappa (vector N5KG4P); also called b-b; bb
As to B11, the binding result in assay [2] and in assay [1] was “binds” each time.

B12: H鎖ヒト型化バージョンi/L鎖ヒト型化バージョンb抗体 (antibody, V domains shown)
VH: B2 VH with N77S, A79V, Y80F, I93V
VL: B5 VL with F71Y
notes: Human IgG4 kappa (vector N5KG4P); also called i-b; ib
Take B12: the binding result in assay [2] and in assay [1] was “binds” in each case.

B13: H鎖ヒト型化バージョンb/L鎖ヒト型化バージョンc抗体 (antibody, V domains shown)
VH: B2 VH
VL: B5 VL with F71Y, F83I
notes: the construction of its expression plasmid is not described; also called b-c
With B13, in assay [1], the binding result is “binds”.

B14: H鎖キメラ/L鎖ヒト型化バージョンb2抗体 (antibody, V domains shown)
VH: B3 VH
VL: B5 VL with G41E, L46S, F71Y
notes: Human IgG4 kappa (vector N5KG4P); also called ch-b2
In the case of B14, in assay [1], the binding result was “binds”.

B15: H鎖ヒト型化バージョンb/L鎖ヒト型化バージョンb2抗体 (antibody, V domains shown)
VH: B2 VH
VL: B5 VL with G41E, L46S, F71Y
notes: Human IgG4 kappa (vector N5KG4P); also called b-b2
As for B15, the binding result in assay [1] is on record as “binds”.

B16: H鎖ヒト型化バージョンb/L鎖ヒト型化バージョンa抗体 (antibody, V domains shown)
VH: B2 VH
VL: B5 VL
notes: Human IgG4 kappa (vector N5KG4P); also called b-a
Turning to B16, the binding result in assay [1] is given as “binds”.

B17: H鎖ヒト型化バージョンd3/L鎖ヒト型化バージョンb抗体 (antibody, V domains shown)
VH: B2 VH with K38R, R40A, T74E, N77S, T91S, I93V, Y95F
VL: B5 VL with F71Y
notes: Human IgG4 kappa (vector N5KG4P); also called d3-b
With B17, the binding result in assay [1] was “binds”.

B18: H鎖ヒト型化バージョンi/L鎖ヒト型化バージョンb2抗体 (antibody, V domains shown)
VH: QVQLLESGAVLARPGTSVKISCKASGFNIKDYYMHWVKQRPGQGLEWIGGNDPANGHSMYDPKFQGRVTITADTSTSTVFMELSSLRSEDTAVYYCARDSGYAMDYWGQGTLVTVSSAS
VL: B5 VL with G41E, L46S, F71Y
notes: Human IgG4 kappa (vector N5KG4P); also called i-b2; ib2
For the molecule B18, the binding result in assay [2] and in assay [1] was “binds” in each case.

B19: H鎖キメラ/L鎖ヒト型化バージョンc抗体 (antibody, V domains shown)
VH: B3 VH
VL: B5 VL with F71Y, F83I
notes: Human IgG4 kappa (vector N5KG4P); also called ch-c
B19: the binding result in assay [1] was “binds”.

B20: H鎖キメラ/L鎖ヒト型化バージョンa抗体 (antibody, V domains shown)
VH: B3 VH
VL: B5 VL
notes: Human IgG4 kappa (vector N5KG4P); also called ch-a
Consider B20, for which, in assay [1], the binding result was “binds”.

B21: H鎖ヒト型化バージョンb3/L鎖ヒト型化バージョンb抗体 (antibody, V domains shown)
VH: B2 VH with K38R, R40A
VL: B5 VL with F71Y
notes: Human IgG4 kappa (vector N5KG4P); also called b3-b
In the case of B21, the binding result in assay [1] was “binds”.

B22: H鎖ヒト型化バージョンd/L鎖ヒト型化バージョンb抗体 (antibody, V domains shown)
VH: B2 VH with T74E, N77S, T91S, I93V, Y95F
VL: B5 VL with F71Y
notes: Human IgG4 kappa (vector N5KG4P); also called d-b
Turning to B22, the binding result in assay [1] was “binds”.

B23: H鎖ヒト型化バージョンj/L鎖ヒト型化バージョンb抗体 (antibody, V domains shown)
VH: B2 VH with I70F, T76A, S84R, E89A, I93V
VL: B5 VL with F71Y
notes: Human IgG4 kappa (vector N5KG4P); also called j-b
With B23, in assay [1], the binding result was “binds”.

B24: H鎖キメラ/L鎖ヒト型化バージョンb1抗体 (antibody, V domains shown)
VH: B3 VH
VL: B5 VL with Y36F, A43S, L46T, F71Y
notes: Human IgG4 kappa (vector N5KG4P); also called ch-b1
Turning to B24, in assay [1], the binding result was “binds”.

B25: H鎖ヒト型化バージョンi/L鎖ヒト型化バージョンb1抗体 (antibody, V domains shown)
VH: B2 VH with N77S, A79V, Y80F, I93V
VL: B5 VL with Y36F, A43S, L46T, F71Y
notes: Human IgG4 kappa (vector N5KG4P); also called i-b1
Consider B25, for which the binding result in assay [1] is “binds”.

B26: H鎖ヒト型化バージョンg/L鎖ヒト型化バージョンb抗体 (antibody, V domains shown)
VH: B2 VH with R67K, V68A, I70L, T74E, T76S, N77S, E82Q, T91S, I93V, Y95S
VL: B5 VL with F71Y
notes: Human IgG4 kappa (vector N5KG4P); also called g-b
Consider B26, for which, in assay [1], the binding result was “binds”.
